Substitutions are numbered along the chain they refer to. Values belong to the binder of their own block, whether it stands above or below them.
Key:
human C5 = target: T1, human C5 (human, UniProt P01031 19-673; P01031 678-1676); test: cross reactivity, capture ELISA with anti-C5 capture antibody, anti-His detection
T1 construct: Captured by an anti-C5 antibody in the ELISA

[1] = target: T2, human complement C3b protein (human, UniProt P01024 23-667; P01024 749-1663); test: bead proximity assay, C3b-acceptor beads; competitor biotinylated fB(D24G/N260D)
T2 construct: Purified plasma C3b (Complement Technology, Quidel); Depending on the assay it was captured by an anti-C3d antibody, coated, biotinylated or coupled to beads; also called human C3b; huC3b
Procedure: (§1) For C3b-C3b and C3b-fP proximity, Fabs or IgGs respectively were pre-incubated with C3b-Acceptor beads (20 μg/ml) for 60 min at room temperature. C3b-Donor beads or fP-Donor beads (20 μg/ml) were then added, and the plate was incubated overnight at room temperature before reading. For C3b-fB and C3b-fH proximity, antibodies were pre-incubated with C3b-Acceptor beads (20 μg/ml) for 60 minutes at room temperature. Biotinylated fB(D24G/N260D) or fH were then added, and incubated for 60 minutes at room temperature. SA-Donor beads were then added (20 μg/ml) and the plate was incubated overnight at room temperature before reading. Plates were read on the BMG Pherastar (ex=680, em=520-620).

[2] = target: T3, cynomolgus complement C3b protein (cynomolgus monkey (Macaca fascicularis)); test: SPR (Biacore), C3b captured by anti-C3d antibody, Fab as analyte
T3 construct: also called cyno C3b; cynoC3b

[3] = target: T2, human complement C3b protein; test: as above
[4] = target: T3, cynomolgus complement C3b protein; test: cell-based or functional assay
[5] = target: T2, human complement C3b protein; test: cell-based or functional assay
[6] = target: T3, cynomolgus complement C3b protein; test: solution equilibrium titration (SET), ECL detection, Fab
[7] = target: T2, human complement C3b protein; test: as above
human C3d [8] = target: T4, human C3d (human, UniProt P01024 1002-1303); test: cross reactivity, ELISA on C3d, anti-His detection
T4 construct: domain: C3d
Procedure: In order to determine whether the anti-C3b antibodies described herein can bind to complement pathway components iC3b and C3c, the following steps were performed: Directly add iC3b(complement Technologies A115), C3d (complement Technologies A117), or C3c (complement Technologies A116), at 2 μg/ml in Carbonate Buffer onto Coat Maxisorp plate Nunc (442404) at 100 μl per well. Seal plates and incubate at 4° C. overnight. Aspirate plates and wash 3 times with PBS/0.5% Tween 20. Block plates with Diluent (PBS, 4% BSA Fraction V (Fisher ICN16006980), 0.1% Tween 20 (Sigma P1379), 0.1% Triton X-100 (Sigma P234729)) and incubate for 2 h at room temperature or overnight at 4° C. Then wash plates once with PBS/0.5% Tween 20. Dilute Fabs at 100 nM and subsequent dilutions (or higher concentration if needed) in diluent and plate 100 μl per well. Incubate at room temperature for 1 h. Wash plates 3 times with PBS/0.5% Tween 20. Add 100 μl/well of anti-Histidine-HRP monoclonal detection antibody at 1:400 in diluent and incubate at room temperature for 1 h. Then wash 4 times with PBS/0.5% Tween 20. Add 100 μl of TMB substrate (Pierce 34028) and incubate at room temperature for up to 5 min. Add 50 μl of Stop solution (2N Sulfuric Acid) to each well and read plate at 450 nm and correct for plastic reading at 570 nm.

[9] = target: T2, human complement C3b protein; test: bead proximity assay, C3b-acceptor beads; competitor biotinylated fH
Procedure: as §1

human C3d [10] = target: T4, human C3d; test: C3d binding ELISA, IgG titrated from about 0.006 to 100 nM
[11] = target: T2, human complement C3b protein; test: AlphaScreen bead proximity, C3b-Acceptor beads pre-incubated with antibody, then C3b-Donor beads; inhibition of C3b-C3b dimer formation; unit from the axis [Antibody] nM [D]
Procedure: (§2) In brief, purified C3b and fP were conjugated to unconjugated acceptor or donor beads (PerkinElmer) using AminoLink Reductant (Pierce) during a 48 h incubation at room temperature. Beads were quenched using Carboxymethoxylamine Hemihydrochloride (Aldrich), and purified by centrifugation at 13000 rpm and three washes with 0.1M TBST. Purified fB(D24G/N260D) and fH were biotinylated during a 30 min incubation with 20-fold molar excess of NHS-Chromogenic-biotin (Pierce) at room temperature, and purified using Zeba 0.5 ml desalting columns (Pierce).
as §1

[12] = target: T2, human complement C3b protein; test: cell-based or functional assay; remark: listed apart in the source
[13] = target: T2, human complement C3b protein; test: AlphaScreen bead proximity, C3b-Acceptor beads pre-incubated with antibody, then biotinylated fB(D24G/N260D) and SA-Donor beads; blocked ligand: fB [A]
Procedure: as §2, §1

[14] = target: T2, human complement C3b protein; test: AlphaScreen bead proximity, C3b-Acceptor beads pre-incubated with antibody, then biotinylated fH and SA-Donor beads; blocked ligand: fH [C]
Procedure: as §2, §1

[15] = target: T3, cynomolgus complement C3b protein; test: SPR (Biacore T100), C3b captured by anti-C3d antibody, IgG as analyte, 1:1 model
[16] = target: T2, human complement C3b protein; test: as above
[17] = target: T2, human complement C3b protein; test: ELISA, C3b or C3 captured by anti-C3d antibody
Procedure: The C3b antibodies were examined to determine whether they were selective for binding to C3b relative to the C3b precursor C3. Briefly, binding selectivity for C3b was determined by performing the following steps. Coat Maxisorp plate Nunc (442404) with anti-C3d rabbit monoclonal (abcam 17453) at 2 μg/ml in Carbonate Buffer at 100 μl/well. Seal plates and incubate at 4° C. overnight. Aspirate plates and wash 3 times with PBS/0.5% Tween 20. Block plates with Diluent (PBS, 4% BSA Fraction V (Fisher ICN16006980), 0.1% Tween 20 (Sigma P1379), 0.1% Triton X-100 (Sigma P234729)) and incubate for 2 h at room temperature or overnight at 4° C. Then wash plates once with PBS/0.5% Tween 20. Dilute purified C3b (complement technologies A114 lot 21) and C3 (complement technologies A113c) at 1 μg/ml in diluent and plate 100 μl per well. Incubate for 1 h at room temperature. Then wash 3 times with PBS/0.5% Tween 20.
Dilute Fabs at 100 nM and subsequent dilutions (or higher concentration) in diluent and plate 100 μl per well. Incubate at room temperature for 1 h. Wash plates 3 times with PBS/0.5% Tween 20. Add 100 μl/well of anti-Histidine-HRP monoclonal detection antibody at 1:400 in diluent and incubate at room temperature for 1 h. Then wash 4 times with PBS/0.5% Tween 20. Add 100 μl of TMB substrate (Pierce 34028) and incubate at room temperature for up to 5 min. Add 50 μl of Stop solution (2N Sulfuric Acid) to each well and read plate at 450 nm and correct for plastic reading at 570 nm.

T4 sequence (P01024 1002-1303 limits assumed): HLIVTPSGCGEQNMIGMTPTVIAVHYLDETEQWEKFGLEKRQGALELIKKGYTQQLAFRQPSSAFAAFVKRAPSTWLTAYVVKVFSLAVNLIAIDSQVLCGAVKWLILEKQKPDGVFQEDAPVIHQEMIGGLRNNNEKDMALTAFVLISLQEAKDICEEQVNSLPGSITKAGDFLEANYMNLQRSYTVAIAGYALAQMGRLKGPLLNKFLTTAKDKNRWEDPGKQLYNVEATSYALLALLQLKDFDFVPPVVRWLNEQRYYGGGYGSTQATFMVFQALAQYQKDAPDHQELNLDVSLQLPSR
T2 sequence (P01024 23-667 P314L, chain 1 of 2): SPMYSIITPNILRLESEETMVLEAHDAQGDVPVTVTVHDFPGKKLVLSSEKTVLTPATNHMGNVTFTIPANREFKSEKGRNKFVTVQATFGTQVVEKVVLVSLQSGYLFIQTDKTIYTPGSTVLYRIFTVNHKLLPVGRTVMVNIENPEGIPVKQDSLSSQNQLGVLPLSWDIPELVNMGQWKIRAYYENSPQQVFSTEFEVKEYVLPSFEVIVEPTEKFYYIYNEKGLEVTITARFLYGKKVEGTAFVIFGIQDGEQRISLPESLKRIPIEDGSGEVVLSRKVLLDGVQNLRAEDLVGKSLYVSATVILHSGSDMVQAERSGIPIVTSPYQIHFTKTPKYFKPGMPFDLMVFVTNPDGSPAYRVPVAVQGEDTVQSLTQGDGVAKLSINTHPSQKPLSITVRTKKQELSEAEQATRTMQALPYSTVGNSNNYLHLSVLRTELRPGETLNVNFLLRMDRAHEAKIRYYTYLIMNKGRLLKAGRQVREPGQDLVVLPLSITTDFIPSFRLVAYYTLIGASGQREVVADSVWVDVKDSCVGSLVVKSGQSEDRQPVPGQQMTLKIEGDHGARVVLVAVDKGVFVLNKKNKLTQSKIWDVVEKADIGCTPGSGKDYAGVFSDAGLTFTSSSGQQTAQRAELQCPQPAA
T2 sequence (P01024 749-1663, chain 2 of 2): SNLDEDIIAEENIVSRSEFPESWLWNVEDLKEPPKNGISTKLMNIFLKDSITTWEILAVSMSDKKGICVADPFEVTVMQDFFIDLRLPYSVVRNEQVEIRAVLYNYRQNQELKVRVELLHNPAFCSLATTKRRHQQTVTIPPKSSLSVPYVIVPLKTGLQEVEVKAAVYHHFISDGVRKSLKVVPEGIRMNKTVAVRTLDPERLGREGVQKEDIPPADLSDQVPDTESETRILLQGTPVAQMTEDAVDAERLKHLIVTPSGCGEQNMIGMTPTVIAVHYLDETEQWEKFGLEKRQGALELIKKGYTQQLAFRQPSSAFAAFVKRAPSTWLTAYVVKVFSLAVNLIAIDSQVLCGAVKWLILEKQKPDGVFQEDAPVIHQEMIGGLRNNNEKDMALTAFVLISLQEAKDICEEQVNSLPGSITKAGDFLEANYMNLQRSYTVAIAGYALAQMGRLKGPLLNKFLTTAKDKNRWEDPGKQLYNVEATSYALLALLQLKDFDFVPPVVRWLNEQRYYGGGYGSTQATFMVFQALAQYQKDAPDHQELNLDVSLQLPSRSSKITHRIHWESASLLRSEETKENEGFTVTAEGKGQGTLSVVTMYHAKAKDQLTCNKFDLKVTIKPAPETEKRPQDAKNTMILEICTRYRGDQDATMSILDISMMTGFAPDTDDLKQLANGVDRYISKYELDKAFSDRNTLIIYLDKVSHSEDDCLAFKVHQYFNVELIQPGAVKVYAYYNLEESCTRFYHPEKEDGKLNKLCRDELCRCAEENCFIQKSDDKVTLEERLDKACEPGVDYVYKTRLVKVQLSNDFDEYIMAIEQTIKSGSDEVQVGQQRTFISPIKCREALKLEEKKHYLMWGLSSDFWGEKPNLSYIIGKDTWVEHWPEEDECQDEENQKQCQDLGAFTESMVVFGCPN
T1 sequence (P01031 19-673 limits assumed, chain 1 of 2): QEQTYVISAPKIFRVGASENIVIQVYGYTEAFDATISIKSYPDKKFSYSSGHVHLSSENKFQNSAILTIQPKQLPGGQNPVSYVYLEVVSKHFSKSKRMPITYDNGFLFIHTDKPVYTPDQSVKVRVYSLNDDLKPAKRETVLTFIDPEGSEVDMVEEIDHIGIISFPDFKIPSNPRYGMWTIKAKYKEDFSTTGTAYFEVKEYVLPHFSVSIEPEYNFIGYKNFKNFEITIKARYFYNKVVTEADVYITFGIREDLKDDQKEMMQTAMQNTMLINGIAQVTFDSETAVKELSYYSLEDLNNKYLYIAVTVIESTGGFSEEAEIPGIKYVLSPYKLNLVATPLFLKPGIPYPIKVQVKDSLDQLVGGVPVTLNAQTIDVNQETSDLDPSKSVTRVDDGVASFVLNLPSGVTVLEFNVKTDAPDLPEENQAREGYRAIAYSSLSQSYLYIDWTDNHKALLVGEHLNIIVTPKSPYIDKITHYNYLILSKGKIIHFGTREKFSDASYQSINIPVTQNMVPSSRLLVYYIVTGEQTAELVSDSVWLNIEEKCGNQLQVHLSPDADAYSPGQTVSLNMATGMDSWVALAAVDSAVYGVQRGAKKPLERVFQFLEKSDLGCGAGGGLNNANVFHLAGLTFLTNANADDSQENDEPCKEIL
T1 sequence (P01031 678-1676 limits assumed, chain 2 of 2): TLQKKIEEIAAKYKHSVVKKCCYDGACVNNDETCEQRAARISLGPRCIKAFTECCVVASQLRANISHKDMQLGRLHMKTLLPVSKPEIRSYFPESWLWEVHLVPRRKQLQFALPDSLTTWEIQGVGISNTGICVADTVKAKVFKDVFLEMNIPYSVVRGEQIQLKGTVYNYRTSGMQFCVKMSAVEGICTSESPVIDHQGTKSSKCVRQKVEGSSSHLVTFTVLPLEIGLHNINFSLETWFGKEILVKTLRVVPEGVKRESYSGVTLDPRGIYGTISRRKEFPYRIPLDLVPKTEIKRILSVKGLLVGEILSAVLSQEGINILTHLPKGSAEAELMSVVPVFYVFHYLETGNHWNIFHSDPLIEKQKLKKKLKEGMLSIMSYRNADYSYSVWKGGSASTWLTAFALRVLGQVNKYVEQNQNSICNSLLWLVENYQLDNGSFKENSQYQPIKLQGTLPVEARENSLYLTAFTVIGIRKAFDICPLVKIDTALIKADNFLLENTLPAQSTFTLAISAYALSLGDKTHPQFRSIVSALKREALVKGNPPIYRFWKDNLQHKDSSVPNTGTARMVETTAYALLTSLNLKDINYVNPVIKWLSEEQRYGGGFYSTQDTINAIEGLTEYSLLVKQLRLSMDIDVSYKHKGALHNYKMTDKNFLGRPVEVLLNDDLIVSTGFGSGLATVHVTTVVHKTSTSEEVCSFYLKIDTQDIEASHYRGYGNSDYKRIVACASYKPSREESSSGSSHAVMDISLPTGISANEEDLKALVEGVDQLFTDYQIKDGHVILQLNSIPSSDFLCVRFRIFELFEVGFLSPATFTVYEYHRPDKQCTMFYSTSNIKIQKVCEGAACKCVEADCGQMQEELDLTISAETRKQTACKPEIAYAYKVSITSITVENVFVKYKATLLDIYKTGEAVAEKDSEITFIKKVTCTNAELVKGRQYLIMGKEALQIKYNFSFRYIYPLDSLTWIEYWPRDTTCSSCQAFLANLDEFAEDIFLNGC

binding result (human C5): no binding | IC50 [1]: 3 nM | Kd [2]: 0.033 nM | Kd [3]: 0.007 nM | C3b Dep (nM), cyno serum, IC50 [4]: 73 nM | HA (nM), 10% cyno serum, IC50 [4]: 101 nM | MAC Dep (nM), cyno serum, IC50 [4]: 5 nM | C3b Dep (nM), human serum, IC50 [5]: 16 nM | HA (nM), 10% human serum, IC50 [5]: 44 nM | MAC Dep (nM), human serum, IC50 [5]: 1 nM | Kd [6]: 0.021 nM | Kd [7]: 0.001 nM | binding result (human C3d [8]): no binding | IC50 [9]: 1 nM
B1: MOR09124 Fab (Fab, V domains shown)
VH: QVQLVESGGGLVQPGGSLRLSCAASGFTFSSYWMTWVRQAPGKGLEWVSSIKIKPDGYAASVKGRFTISRDNSKNTLYLQMNSLRAEDTAVYYCARLFYQYFARMDYWGQGTLVTVSS
VL: DIQMTQSPSSLSASVGDRVTITCRASQDISNYLNWYQQKPGKAPKLLIYAASNLQSGVPSRFSGSGSGTDFTLTISSLQPEDFATYYCQQYDSYSPTFGQGTKVEIKR
notes: HCDR2-matured derivative of parental MOR08305

binding result (human C3d [10]): no binding (tested: 100 nM) | EC50 [11]: 340 nM | MAC deposition on zymosan, IC50 [12]: ≤ 5 nM | IC50 (read off the curve) [13]: ~0.05 nM | IC50 (read off the curve) [14]: ~0.04 nM | Kd [15]: 0.0253 nM | koff [15]: 8.67e-05 s⁻¹ | kon [15]: 3.43e+06 M⁻¹ s⁻¹ | Kd [16]: 0.00179 nM | koff [16]: 9.04e-06 s⁻¹ | kon [16]: 5.05e+06 M⁻¹ s⁻¹ | fold binding selectivity for C3b over C3 [17]: > 1000 fold
B2: MOR09612 IgG (antibody, V domains shown)
VH: B1 VH with Q1E
VL: B1 VL with Y91W, Y94F
notes: Germlined human IgG1 with leucines 234 and 235 changed to alanines, kappa; also called antibody 9612
hemolysis of rabbit red blood cells, 10% human or cynomolgus serum, IC50 [12]: ≤ 50 nM | inhibition of C3a and C5a generation during hemolysis, IC50 [12]: ≤ 50 nM

binding result (human C3d [10]): no binding (tested: 100 nM) | EC50 [11]: 605 nM | MAC deposition on zymosan, IC50 [12]: ≤ 5 nM | IC50 (read off the curve) [13]: ~0.05 nM | IC50 (read off the curve) [14]: ~0.04 nM | Kd [15]: 0.0183 nM | koff [15]: 0.000128 s⁻¹ | kon [15]: 6.97e+06 M⁻¹ s⁻¹ | Kd [16]: 0.000435 nM | koff [16]: 3.1e-06 s⁻¹ | kon [16]: 7.13e+06 M⁻¹ s⁻¹ | fold binding selectivity for C3b over C3 [17]: > 1000 fold
B3: MOR09611 IgG (antibody, V domains shown)
VH: B1 VH with Q1E
VL: B1 VL with Y91H, S93T, Y94F, S95R
notes: Germlined human IgG1 with leucines 234 and 235 changed to alanines, kappa; also called antibody 9611
hemolysis of rabbit red blood cells, 10% human or cynomolgus serum, IC50 [12]: ≤ 50 nM | inhibition of C3a and C5a generation during hemolysis, IC50 [12]: ≤ 50 nM

binding result (human C5): no binding | IC50 [1]: 0.2 nM | Kd [2]: 0.486 nM | Kd [3]: 0.075 nM | C3b Dep (nM), cyno serum, IC50 [4]: 66 nM | HA (nM), 10% cyno serum, IC50 [4]: 83 nM | MAC Dep (nM), cyno serum, IC50 [4]: 4 nM | C3b Dep (nM), human serum, IC50 [5]: 14 nM | HA (nM), 10% human serum, IC50 [5]: 48 nM | MAC Dep (nM), human serum, IC50 [5]: 1 nM | Kd [6]: 0.34 nM | Kd [7]: 0.1 nM | binding result (human C3d [8]): no binding | IC50 [9]: 0.08 nM
B4: MOR09423 Fab (Fab, V domains shown)
VH: QVQLVQSGAEVKKPGASVKVSCKASGYTFTGYYINWVRQAPGQGLEWMGIISPNQGTTGYAQKFQGRVTMTRDTSISTAYMELSSLRSEDTAVYYCARGNYDHLDYWGQGTLVTVSS
VL: DIQMTQSPSSLSASVGDRVTITCRASQGISNYLNWYQQKPGKAPKLLIYDASTLQSGVPSRFSGSGSGTDFTLTISSLQPEDFATYYCQQDWHTLPVTFGQGTKVEIKR
notes: also called Fab 9423

Source: US20100291106A1 (Novartis, published 2010)
